Test results published in PMC10397247.

Assays:
[1] = molecular target: T1, 4H346-bA; test: two-hybrid library CCNG1;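 also: natural log of median RNA to DNA barcode read ratio; higher means stronger binding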
T1 chain: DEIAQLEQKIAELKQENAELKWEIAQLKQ

[2] = molecular target: T2, 4H953-bA; test: two-hybrid library CCNG1;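 also: natural log of median RNA to DNA barcode read ratio; higher means stronger binding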
T2 chain: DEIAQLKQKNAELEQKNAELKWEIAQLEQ

[3] = molecular target: T3, 4H968-bA; test: two-hybrid library CCNG1;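 also: natural log of median RNA to DNA barcode read ratio; higher means stronger binding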
T3 chain: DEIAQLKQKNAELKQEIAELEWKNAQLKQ

[4] = molecular target: T4, 4H3112-bA; test: two-hybrid library CCNG1;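 also: natural log of median RNA to DNA barcode read ratio; higher means stronger binding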
T4 chain: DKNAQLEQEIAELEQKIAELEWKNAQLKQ

[5] = molecular target: T5, 4H575-bA; test: two-hybrid library CCNG1;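 also: natural log of median RNA to DNA barcode read ratio; higher means stronger binding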
T5 chain: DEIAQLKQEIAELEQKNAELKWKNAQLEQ

[6] = molecular target: T6, 4H3010-bA; test: two-hybrid library CCNG1;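 also: natural log of median RNA to DNA barcode read ratio; higher means stronger binding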
T6 chain: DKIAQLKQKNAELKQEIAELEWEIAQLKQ

[7] = molecular target: T7, 4H4073-bA; test: two-hybrid library CCNG1
T7 chain: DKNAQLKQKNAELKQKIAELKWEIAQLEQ

[8] = molecular target: T8, 4H3427-bA; test: two-hybrid library CCNG1
T8 chain: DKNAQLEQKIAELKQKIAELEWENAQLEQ

[9] = molecular target: T9, 4H170-bA; test: two-hybrid library CCNG1
T9 chain: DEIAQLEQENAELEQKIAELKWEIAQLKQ

[10] = molecular target: T10, 4H780-bA; test: two-hybrid library CCNG1
T10 chain: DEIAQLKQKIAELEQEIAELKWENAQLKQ

[11] = molecular target: T11, 4H855-bA; test: two-hybrid library CCNG1
T11 chain: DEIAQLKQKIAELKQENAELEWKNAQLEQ

[12] = molecular target: T12, 4H457-bA; test: two-hybrid library CCNG1
T12 chain: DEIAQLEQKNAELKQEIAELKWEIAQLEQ

[13] = molecular target: T13, 4H918-bA; test: two-hybrid library CCNG1
T13 chain: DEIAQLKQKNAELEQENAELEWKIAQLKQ

[14] = molecular target: T14, 4H118-bA; test: two-hybrid library CCNG1
T14 chain: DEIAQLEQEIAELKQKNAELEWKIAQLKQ

[15] = molecular target: T15, 4H2627-bA; test: two-hybrid library CCNG1
T15 chain: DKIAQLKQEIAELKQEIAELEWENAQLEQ

[16] = molecular target: T16, 4H2702-bA; test: two-hybrid library CCNG1
T16 chain: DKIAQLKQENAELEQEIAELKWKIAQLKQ

[17] = molecular target: T17, 4H683-bA; test: two-hybrid library CCNG1
T17 chain: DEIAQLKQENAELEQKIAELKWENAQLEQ

[18] = molecular target: T18, 4H1831-bA; test: two-hybrid library CCNG1
T18 chain: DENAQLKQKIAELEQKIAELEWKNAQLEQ

[19] = molecular target: T19, 4H3926-bA; test: two-hybrid library CCNG1
T19 chain: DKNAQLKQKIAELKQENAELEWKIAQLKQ

[20] = molecular target: T20, 4H797-bA; test: two-hybrid library CCNG1
T20 chain: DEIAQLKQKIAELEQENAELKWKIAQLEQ

[21] = molecular target: T21, 4H1158-bA; test: two-hybrid library CCNG1
T21 chain: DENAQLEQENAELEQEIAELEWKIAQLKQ

[22] = molecular target: T22, 4H754-bA; test: two-hybrid library CCNG1
T22 chain: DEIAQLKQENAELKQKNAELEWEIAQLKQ

[23] = molecular target: T23, 4H2673-bA; test: two-hybrid library CCNG1
T23 chain: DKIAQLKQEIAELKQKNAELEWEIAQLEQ

[24] = molecular target: T24, 4H2586-bA; test: two-hybrid library CCNG1
T24 chain: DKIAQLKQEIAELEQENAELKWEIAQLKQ

[25] = molecular target: T25, 4H2253-bA; test: two-hybrid library CCNG1
T25 chain: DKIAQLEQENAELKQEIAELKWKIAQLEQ

[26] = molecular target: T26, P2-AA-1HAA-S; test: two-hybrid library CCmax; details: mean of both orientations
T26 chain: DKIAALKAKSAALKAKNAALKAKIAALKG

[27] = molecular target: T27, P2-AA; test: two-hybrid library CCmax; details: mean of both orientations
T27 chain: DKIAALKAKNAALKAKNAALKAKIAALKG

[28] = molecular target: T28, P2-AA-1HAA-T; test: two-hybrid library CCmax; details: mean of both orientations
T28 chain: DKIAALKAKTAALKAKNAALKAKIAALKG

[29] = molecular target: T29, P2-AA-1HAA-D; test: two-hybrid library CCmax; details: mean of both orientations
T29 chain: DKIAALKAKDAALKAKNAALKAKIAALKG

[30] = molecular target: T30, P2-AA-1HAA-R; test: two-hybrid library CCmax; details: mean of both orientations
T30 chain: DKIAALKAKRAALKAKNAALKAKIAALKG

[31] = molecular target: T31, P2-AA-1HAA-H; test: two-hybrid library CCmax; details: mean of both orientations
T31 chain: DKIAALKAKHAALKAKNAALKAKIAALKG

[32] = molecular target: T32, P2-AA-1HAA-I; test: two-hybrid library CCmax; details: mean of both orientations
T32 chain: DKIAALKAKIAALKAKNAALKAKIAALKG

[33] = molecular target: T33, P2-AA-1HAA-V; test: two-hybrid library CCmax; details: mean of both orientations
T33 chain: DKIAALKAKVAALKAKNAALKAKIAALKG

[34] = molecular target: T34, P2-AA-1HAA-E; test: two-hybrid library CCmax; details: mean of both orientations
T34 chain: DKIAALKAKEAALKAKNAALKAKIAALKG

## DENAQLEQENAELEQEIAELEWKIAQLKQ [4H1158-bA]
[1]
  interaction score: -0.31
[2]
  interaction score: -0.12
[3]
  interaction score: 0.0766
[4]
  interaction score: -0.0196
[5]
  interaction score: 0.324
[6]
  interaction score: 2.11
[7]
  interaction score: 2.53
[8]
  interaction score: 0.681
[9]
  interaction score: -1.67
[10]
  interaction score: 0.459
[11]
  interaction score: 0.0299
[12]
  interaction score: 1.02
[13]
  interaction score: -0.069
[14]
  interaction score: 0.591
[15]
  interaction score: 1.15
[16]
  interaction score: 0.584
[17]
  interaction score: -1.19
[18]
  interaction score: 0.132
[19]
  interaction score: 0.769
[20]
  interaction score: 0
[21]
  interaction score: -0.559
[22]
  interaction score: -0.283
[23]
  interaction score: -0.0392
[24]
  interaction score: -0.706
[25]
  interaction score: 0.12

## DEIAALEAETAALEAENAALEAEIAALEG [P1-AA-1HAA-T]
[26]
  interaction score: 2.1
[27]
  interaction score: 1.88
[28]
  interaction score: 1.69
[29]
  interaction score: 1.99
[30]
  interaction score: 1.93
[31]
  interaction score: 2.07
[32]
  interaction score: 2.05
[33]
  interaction score: 2.02
[34]
  interaction score: 2.02
